B1: OR4K15 (parent)
chain: GUUAACGGUCAUAGGCCAUGGAAACUAGGAGCACCAUUUCGCUGCCAGUGAAGAAAUGAACAAAGAAAAUCUGGGCCAGGCAGGCAUCAAAAGAAAUAGUCUUGCGCUCAACCAGAAAGUCUGUAAUCAUUUUAAGGGUA

Experimental findings from the RNAGym collection of RNA variant scans (doi:10.7554/elife.90254) are described below.

In this data set the parent is B1. The data set can be described thus: self-cleavage, relative activity (ratio to wild type); higher = more cleavage; in vitro, sequencing; the parent is a self-cleaving ribozyme.
With GUUAACGGUCAUAGGCCAUGGAAACUAGGAGCACCCUUUCGCUGCCAGUGAAGAAAUGAACAAAGAAAAUCUGGGCCAGGCAGGCUUCAAAAGAAAUAGUCUUGCGCUCAACCAGAAAGUCUGUAAUCAUUUUAAGGGUA, the self-cleavage was 2.2. GUUAACGGUCAUAGGCCAUGGAAACUAGGAGCACCCUUUCGCUGCCAGUGAAGAAAUGAACAAAGAAAAUCUGGGCCAGGCAGGCGUCAAAAGAAAUAGUCUUGCGCUCAACCAGAAAGUCUGUAAUCAUUUUAAGGGUA: the self-cleavage amounted to 1.24. The figure for GUUAACGGUCAUAGGCCAUGGAAACUAGGAGCACCCUUUCGCUGCCAGUGAAGAAAUGAACAAAGAAAAUCUGGGCCAGGCAGGCAUCAAAAGAAAUAGUCUUGCGCUCAACCAGAAAGUCUGUAAACAUUUUAAGGGUA is 2.57. With GUUAACGGUCAUAGGCCAUGGAAACUAGGAGCACCGUUUCGCUGCCAGUGAAGAAAUGAACAAAGAAAAUCUGGGCCAGGCAGGCAUCAAACGAAAUAGUCUUGCGCUCAACCAGAAAGUCUGUAAUCAUUUUAAGGGUA, the self-cleavage was determined as 2.15. The figure for GUUAACGGUCAUAGGCCAUGGAAACUAGGAGCACCGUUUCGCUGCCAGUGAAGAAAUGAACAAAGAAAAUCUGGGCCAGGCAGGCAUCAAAGGAAAUAGUCUUGCGCUCAACCAGAAAGUCUGUAAUCAUUUUAAGGGUA is 1.

Take GUUAACGGUCAUAGGCCAUGGAAACUAGGAGCACUAUUUCGCUGCCAGUGAAGAAAUGAACAAAGAAAAUCUGGGCCAGGCAGGCAUCAAAAGAAAUAGUCUUGCGCUCAACCAGAAAGUCUGUAAUCAUAUUAAGGGUA: the self-cleavage was 1.01. As to GUUAACGGUCAUAGGCCAUGGAAACUAGGAGCACCGUUUCGCUGCCAGUGAAGAAAUGAACAAAGAAAAUCUGGGCCAGGCAGGCAUCAACAGAAAUAGUCUUGCGCUCAACCAGAAAGUCUGUAAUCAUUUUAAGGGUA, the self-cleavage amounted to 1.96. On to GUUAACGGUCAUAGGCCAUGGAAACUAGGAGCACCGUUUCGCUGCCAGUGAAGAAAUGAACAAAGAAAAUCUGGGCCAGGCAGGCAUCAAGAGAAAUAGUCUUGCGCUCAACCAGAAAGUCUGUAAUCAUUUUAAGGGUA, for which the self-cleavage is 0.95. The figure for GUUAACGGUCAUAGGCCAUGGAAACUAGGAGCACCGUUUCGCUGCCAGUGAAGAAAUGAACAAAGAAAAUCUGGGCCAGGCAGGCAUCAAUAGAAAUAGUCUUGCGCUCAACCAGAAAGUCUGUAAUCAUUUUAAGGGUA is 1.95.

Turning to GUUAACGGUCAUAGGCCAUGGAAACUAGGAGCACCCUUUCGCUGCCAGUGAAGAAAUGAGCAAAGAAAAUCUGGGCCAGGCAGGCAUCAAAAGAAAUAGUCUUGCGCUCAACCAGAAAGUCUGUAAUCAUUUUAAGGGUA, the self-cleavage was found to be 0.49. Consider GUUAACGGUCAUAGGCCAUGGAAACUAGGAGCACCCUUUCGCUGCCAGAGAAGAAAUGAACAAAGAAAAUCUGGGCCAGGCAGGCAUCAAAAGAAAUAGUCUUGCGCUCAACCAGAAAGUCUGUAAUCAUUUUAAGGGUA, for which the self-cleavage was 2. Turning to GUUAACGGUCAUAGGCCAUGGAAACUAGGAGCACCGUUUCGCUGCCAGUGAAGAAAUGAACAAAGGAAAUCUGGGCCAGGCAGGCAUCAAAAGAAAUAGUCUUGCGCUCAACCAGAAAGUCUGUAAUCAUUUUAAGGGUA, the self-cleavage was 1.8. Consider GUUAACGGUCAUAGGCCAUGGAAACUAGGAGCACUAUUUCGCUGCCAGUGAAGAAAUGAACAAAGAAAAUCUGGGCCAGGCAGGCAUCAAAAGAAAUAGUCAUGCGCUCAACCAGAAAGUCUGUAAUCAUUUUAAGGGUA, for which the self-cleavage was found to be 0.81.

GUUAACGGUCAUAGGCCAUGGAAACUAGGAGCACCGUUUCGCUGCCAGUGAAGAAAUGAACAGAGAAAAUCUGGGCCAGGCAGGCAUCAAAAGAAAUAGUCUUGCGCUCAACCAGAAAGUCUGUAAUCAUUUUAAGGGUA: the self-cleavage came out at 1.32. The same measure for GUUAACGGUCAUAGGCCAUGGAAACUAGGAGCACCGUUUCGCUGCCAGUGAAGAAAUGAACAUAGAAAAUCUGGGCCAGGCAGGCAUCAAAAGAAAUAGUCUUGCGCUCAACCAGAAAGUCUGUAAUCAUUUUAAGGGUA: 1.91.

For GUUAACGGUCAUAGGCCAUGGAAACUAGGAGCACCGUUUCGCUGCCAGUGAAGAAAUGAACACAGAAAAUCUGGGCCAGGCAGGCAUCAAAAGAAAUAGUCUUGCGCUCAACCAGAAAGUCUGUAAUCAUUUUAAGGGUA, the self-cleavage was found to be 2.09. As for GUUAACGGUCAUAGGCCAUGGAAACUAGGAGCACCGUUUCGCUGCCAGUGAAGAAAUGAACCAAGAAAAUCUGGGCCAGGCAGGCAUCAAAAGAAAUAGUCUUGCGCUCAACCAGAAAGUCUGUAAUCAUUUUAAGGGUA, the self-cleavage was 1.51. The same measure for GUUAACGGUCAUAGGCCAUGGAAACUAGGAGCACCGUUUCGCUGCCAGUGAAGAAAUGAACUAAGAAAAUCUGGGCCAGGCAGGCAUCAAAAGAAAUAGUCUUGCGCUCAACCAGAAAGUCUGUAAUCAUUUUAAGGGUA: 2.06; for GUUAACGGUCAUAGGCCAUGGAAACUAGGAGCACCGUUUCGCUGCCAGUGAAGAAAUGAACAAAGAAAAUCUGGGCCAGGCAGGCAUCGAAAGAAAUAGUCUUGCGCUCAACCAGAAAGUCUGUAAUCAUUUUAAGGGUA: 1.52. The same measure for GUUAACGGUCAUAGGCCAUGGAAACUAGGAGCACCCUUUCGCUGCCAGUGAAGAAAUGAACAAAGAAAAUCUGGGCCAGGCAGGCAUCAAAAGAAAUAGUCUUGCGCUCAACCGGAAAGUCUGUAAUCAUUUUAAGGGUA: 0.9; for GUUAACGGUCAUAGGCCAUGGAAACUAGGAGCACCGUUUCGCUGCCAGUGAAGAAAUGUACAAAGAAAAUCUGGGCCAGGCAGGCAUCAAAAGAAAUAGUCUUGCGCUCAACCAGAAAGUCUGUAAUCAUUUUAAGGGUA: 0.83. The figure for GUUAACGGUCAUAGGCCAUGGAAACUAGGAGCACCGUUUCGCUGCCAGUGAAGAAAUGGACAAAGAAAAUCUGGGCCAGGCAGGCAUCAAAAGAAAUAGUCUUGCGCUCAACCAGAAAGUCUGUAAUCAUUUUAAGGGUA is 1.75. As to GUUAACGGUCAUAGGCCAUGGAAACUAGGAGCACCGUUUCGCUGCCAGUGAGGAAAUGAACAAAGAAAAUCUGGGCCAGGCAGGCAUCAAAAGAAAUAGUCUUGCGCUCAACCAGAAAGUCUGUAAUCAUUUUAAGGGUA, the self-cleavage turned out to be 1.79. For the variant GUUAACGGUCAUAGGCCAUGGAAACUAGGAGCACCCUUUCGCUGCCAGUGAAGAAAUGAACAAAGAAAAUCUGGGCCAGGCAGGCAUCAAAAGGAAUAGUCUUGCGCUCAACCAGAAAGUCUGUAAUCAUUUUAAGGGUA, the self-cleavage came to 1.94. The same measure for GUUAACGGUCAUAGGCCAUGGAAACUAGGAGCACCCUUUCGCUGCCAGUGAAGAGAUGAACAAAGAAAAUCUGGGCCAGGCAGGCAUCAAAAGAAAUAGUCUUGCGCUCAACCAGAAAGUCUGUAAUCAUUUUAAGGGUA: 1.7; for GUUAACGGUCAUAGGCCAUGGAAACUAGGAGCACCGUUUCGCUGCCAGUGAAGAAAUGAACAAAGAAAAUCUGGGCCAGGCCGGCAUCAAAAGAAAUAGUCUUGCGCUCAACCAGAAAGUCUGUAAUCAUUUUAAGGGUA: 0.2. With GUUAACGGUCAUAGGCCAUGGAAACUAGGAGCACCCUCUCGCUGCCAGUGAAGAAAUGAACAAAGAAAAUCUGGGCCAGGCAGGCAUCAAAAGAAAUAGUCUUGCGCUCAACCAGAAAGUCUGUAAUCAUUUUAAGGGUA, the self-cleavage was 1.43.

Take GUUAACGGUCAUAGGCCAUGGAAACUAGGAGCACCGUUUCGCUGCCAGUGAAGAUAUGAACAAAGAAAAUCUGGGCCAGGCAGGCAUCAAAAGAAAUAGUCUUGCGCUCAACCAGAAAGUCUGUAAUCAUUUUAAGGGUA: the self-cleavage was 1.38. Consider GUUAACGGUCAUAGGCCAUGGAAACUAGGAGCACCGUUUCGCUGCCAGUGAAGAGAUGAACAAAGAAAAUCUGGGCCAGGCAGGCAUCAAAAGAAAUAGUCUUGCGCUCAACCAGAAAGUCUGUAAUCAUUUUAAGGGUA, for which the self-cleavage was 1.18. The figure for GUUAACGGUCAUAGGCCAUGGAAACUAGGAGCACCCUUUCGCUGCCAGUGAAGAAAUGAACAAAGAAAAUCUGGGCCAGGCAGGCAUCAAAAGAAAUAGCCUUGCGCUCAACCAGAAAGUCUGUAAUCAUUUUAAGGGUA is 1.85. For the variant GUUAACGGUCAUAGGCCAUGGAAACUAGGAGCACCGUUUCGCUGCCAGUGAAGAAAUGAUCAAAGAAAAUCUGGGCCAGGCAGGCAUCAAAAGAAAUAGUCUUGCGCUCAACCAGAAAGUCUGUAAUCAUUUUAAGGGUA, the self-cleavage was found to be 0.82. The figure for GUUAACGGUCAUAGGCCAUGGAAACUAGGAGCACCCUUUCGCUGCCAGUGAAGAAAUGGACAAAGAAAAUCUGGGCCAGGCAGGCAUCAAAAGAAAUAGUCUUGCGCUCAACCAGAAAGUCUGUAAUCAUUUUAAGGGUA is 1.68. With GUUAACGGUCAUAGGCCAUGGAAACUAGGAGCACCCUUUCGCUGCCAGUGAAGAAAUGAACAAAGUAAAUCUGGGCCAGGCAGGCAUCAAAAGAAAUAGUCUUGCGCUCAACCAGAAAGUCUGUAAUCAUUUUAAGGGUA, the self-cleavage was 1.68. Consider GUUAACGGUCAUAGGCCAUGGAAACUAGGAGCACCGUUUCGCUGCCAGUGAAGAAAUGAACAAAGAAAGUCUGGGCCAGGCAGGCAUCAAAAGAAAUAGUCUUGCGCUCAACCAGAAAGUCUGUAAUCAUUUUAAGGGUA, for which the self-cleavage worked out at 1.37.

For the variant GUUAACGGUCAUAGGCCAUGGAAACUAGGAGCACCCUUUCGCUGCCAGUGAAGAAAUGAACAAAGAAAAUCUGGGCCAGGCAGGCAUCAAAAGAAGUAGUCUUGCGCUCAACCAGAAAGUCUGUAAUCAUUUUAAGGGUA, the self-cleavage was found to be 1.9. The figure for GUUAACGGUCAUAGGCCAUGGAAACUAGGAGCACUAUUUCGCUGCCAGUGAAGAAAUGAACAAAGAAAAUCUGGGCCAGGCAGGCAUCAAAAGAAAUAGUCUUGCGCUCAACCAGAAAGUCUGUAAUCAUUCUAAGGGUA is 0.37. The figure for GUUAACGGUCAUAGGCCAUGGAAACUAGGAGCACCCUUUCGCUGCCAAUGAAGAAAUGAACAAAGAAAAUCUGGGCCAGGCAGGCAUCAAAAGAAAUAGUCUUGCGCUCAACCAGAAAGUCUGUAAUCAUUUUAAGGGUA is 1.28; for GUUAACGGUCAUAGGCCAUGGAAACUAGGAGCACCCAUUCGCUGCCAGUGAAGAAAUGAACAAAGAAAAUCUGGGCCAGGCAGGCAUCAAAAGAAAUAGUCUUGCGCUCAACCAGAAAGUCUGUAAUCAUUUUAAGGGUA it is 1.85.

For GUUAACGGUCAUAGGCCAUGGAAACUAGGAGCACUAUUUCGCUGCCAGUGAAGAAACGAACAAAGAAAAUCUGGGCCAGGCAGGCAUCAAAAGAAAUAGUCUUGCGCUCAACCAGAAAGUCUGUAAUCAUUUUAAGGGUA, the self-cleavage stood at 0.58.

With GUUAACGGUCAUAGGCCAUGGAAACUAGGAGCACCGUUUCGCUGCCAGUGUAGAAAUGAACAAAGAAAAUCUGGGCCAGGCAGGCAUCAAAAGAAAUAGUCUUGCGCUCAACCAGAAAGUCUGUAAUCAUUUUAAGGGUA, the self-cleavage is 1.86. In the case of GUUAACGGUCAUAGGCCAUGGAAACUAGGAGCACCGUUUCGCUGCCAGUGGAGAAAUGAACAAAGAAAAUCUGGGCCAGGCAGGCAUCAAAAGAAAUAGUCUUGCGCUCAACCAGAAAGUCUGUAAUCAUUUUAAGGGUA, the self-cleavage turned out to be 0.9.
